Common to all, as to experiment: fluorescence anisotropy
Background: Fluorescence polarisation rises when a labelled molecule tumbles more slowly, as on binding a larger partner.

Series [1] deals with T1, Sgd1 MIF4G-Cterm (MIF4G, MA3 and C-terminal region) (Saccharomyces cerevisiae, UniProt Q06132 330-899).
T1 sequence: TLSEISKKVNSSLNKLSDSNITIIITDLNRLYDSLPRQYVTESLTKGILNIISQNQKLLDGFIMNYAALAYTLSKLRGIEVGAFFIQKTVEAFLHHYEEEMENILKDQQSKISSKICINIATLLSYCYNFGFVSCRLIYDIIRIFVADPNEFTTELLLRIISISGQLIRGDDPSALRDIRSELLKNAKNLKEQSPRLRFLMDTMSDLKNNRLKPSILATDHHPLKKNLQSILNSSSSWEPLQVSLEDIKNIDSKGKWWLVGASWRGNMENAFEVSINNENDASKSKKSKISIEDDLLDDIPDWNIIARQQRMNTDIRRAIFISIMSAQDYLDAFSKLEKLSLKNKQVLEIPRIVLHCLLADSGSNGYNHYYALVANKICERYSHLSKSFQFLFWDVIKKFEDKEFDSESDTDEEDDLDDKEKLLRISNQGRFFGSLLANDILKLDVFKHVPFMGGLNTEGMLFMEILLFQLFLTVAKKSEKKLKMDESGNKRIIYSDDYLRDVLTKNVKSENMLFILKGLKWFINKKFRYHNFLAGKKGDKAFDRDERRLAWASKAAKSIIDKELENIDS

Series [2] has as its target T2, Sgd1 Nterm-MIF4G (Saccharomyces cerevisiae, UniProt Q06132 1-541).
T2 sequence: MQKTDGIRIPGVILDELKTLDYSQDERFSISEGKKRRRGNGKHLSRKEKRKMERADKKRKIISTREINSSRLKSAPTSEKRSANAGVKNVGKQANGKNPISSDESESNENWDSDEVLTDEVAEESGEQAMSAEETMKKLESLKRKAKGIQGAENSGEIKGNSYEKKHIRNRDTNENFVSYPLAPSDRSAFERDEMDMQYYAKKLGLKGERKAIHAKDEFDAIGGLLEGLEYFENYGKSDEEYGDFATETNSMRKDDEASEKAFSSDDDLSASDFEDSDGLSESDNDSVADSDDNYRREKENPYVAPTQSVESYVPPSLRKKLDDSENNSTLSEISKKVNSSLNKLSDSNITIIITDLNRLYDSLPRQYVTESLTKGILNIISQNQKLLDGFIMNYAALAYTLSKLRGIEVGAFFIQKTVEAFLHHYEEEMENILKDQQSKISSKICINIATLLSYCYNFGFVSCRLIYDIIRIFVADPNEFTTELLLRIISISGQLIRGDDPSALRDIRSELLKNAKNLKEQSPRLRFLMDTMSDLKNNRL

Series [3] concerns the target T3, Sgd1 MA3-Cterm (Saccharomyces cerevisiae, UniProt Q06132 645-899).
T3 sequence: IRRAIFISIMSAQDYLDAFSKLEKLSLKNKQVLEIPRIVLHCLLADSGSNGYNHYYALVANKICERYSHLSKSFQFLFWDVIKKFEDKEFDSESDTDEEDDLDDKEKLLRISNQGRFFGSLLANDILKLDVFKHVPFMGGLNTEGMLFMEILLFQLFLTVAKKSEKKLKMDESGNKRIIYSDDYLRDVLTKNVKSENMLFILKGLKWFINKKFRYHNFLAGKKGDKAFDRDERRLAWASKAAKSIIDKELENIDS

B1: 11 nt Atto647-labelled RNA (ssRNA)
RNA: GUAAUGAAAGU
For the molecule B1, the binding result in series [1] is on record as “binds”; in series [2] it was “no binding”; in series [3], “binds”.

For the origin of these results see paper PMC7237134.
